T1: FLAG Nercc (full-length wild type Nercc1 kinase with FLAG epitope tag) (human, UniProt Q8TD19 1-979)
T1 construct: Expressed in HEK293 cells; also called FLAG Nercc1; FLAG Nercc full length (FL)
T1 sequence: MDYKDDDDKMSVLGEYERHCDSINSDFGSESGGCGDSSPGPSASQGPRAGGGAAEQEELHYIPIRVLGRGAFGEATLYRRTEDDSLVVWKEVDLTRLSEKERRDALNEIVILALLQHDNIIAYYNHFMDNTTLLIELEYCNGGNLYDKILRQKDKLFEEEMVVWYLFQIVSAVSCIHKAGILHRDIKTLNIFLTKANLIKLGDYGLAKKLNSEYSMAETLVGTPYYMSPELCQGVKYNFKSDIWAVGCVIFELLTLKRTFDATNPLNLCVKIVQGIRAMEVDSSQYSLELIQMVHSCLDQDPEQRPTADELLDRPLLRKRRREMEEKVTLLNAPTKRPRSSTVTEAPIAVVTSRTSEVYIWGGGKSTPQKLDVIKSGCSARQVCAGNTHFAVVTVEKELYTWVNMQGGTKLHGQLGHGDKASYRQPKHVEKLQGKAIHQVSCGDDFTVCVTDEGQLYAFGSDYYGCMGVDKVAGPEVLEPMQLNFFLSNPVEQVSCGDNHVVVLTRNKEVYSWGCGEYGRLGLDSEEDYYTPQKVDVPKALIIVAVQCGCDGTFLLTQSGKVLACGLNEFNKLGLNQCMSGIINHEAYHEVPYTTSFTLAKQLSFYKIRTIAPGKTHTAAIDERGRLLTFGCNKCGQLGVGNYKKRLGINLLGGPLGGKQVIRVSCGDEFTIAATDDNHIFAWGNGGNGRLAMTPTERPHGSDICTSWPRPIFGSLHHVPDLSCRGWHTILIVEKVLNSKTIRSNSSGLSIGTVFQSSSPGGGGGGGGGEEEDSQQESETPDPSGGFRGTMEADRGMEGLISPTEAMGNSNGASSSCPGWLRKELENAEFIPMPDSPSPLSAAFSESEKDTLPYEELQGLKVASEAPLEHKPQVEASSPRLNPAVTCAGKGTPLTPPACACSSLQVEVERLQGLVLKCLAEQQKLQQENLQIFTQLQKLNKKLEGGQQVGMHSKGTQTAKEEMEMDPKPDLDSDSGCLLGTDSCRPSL

T2: FLAG Nercc (1-891) (human, UniProt Q8TD19 1-891)
T2 sequence: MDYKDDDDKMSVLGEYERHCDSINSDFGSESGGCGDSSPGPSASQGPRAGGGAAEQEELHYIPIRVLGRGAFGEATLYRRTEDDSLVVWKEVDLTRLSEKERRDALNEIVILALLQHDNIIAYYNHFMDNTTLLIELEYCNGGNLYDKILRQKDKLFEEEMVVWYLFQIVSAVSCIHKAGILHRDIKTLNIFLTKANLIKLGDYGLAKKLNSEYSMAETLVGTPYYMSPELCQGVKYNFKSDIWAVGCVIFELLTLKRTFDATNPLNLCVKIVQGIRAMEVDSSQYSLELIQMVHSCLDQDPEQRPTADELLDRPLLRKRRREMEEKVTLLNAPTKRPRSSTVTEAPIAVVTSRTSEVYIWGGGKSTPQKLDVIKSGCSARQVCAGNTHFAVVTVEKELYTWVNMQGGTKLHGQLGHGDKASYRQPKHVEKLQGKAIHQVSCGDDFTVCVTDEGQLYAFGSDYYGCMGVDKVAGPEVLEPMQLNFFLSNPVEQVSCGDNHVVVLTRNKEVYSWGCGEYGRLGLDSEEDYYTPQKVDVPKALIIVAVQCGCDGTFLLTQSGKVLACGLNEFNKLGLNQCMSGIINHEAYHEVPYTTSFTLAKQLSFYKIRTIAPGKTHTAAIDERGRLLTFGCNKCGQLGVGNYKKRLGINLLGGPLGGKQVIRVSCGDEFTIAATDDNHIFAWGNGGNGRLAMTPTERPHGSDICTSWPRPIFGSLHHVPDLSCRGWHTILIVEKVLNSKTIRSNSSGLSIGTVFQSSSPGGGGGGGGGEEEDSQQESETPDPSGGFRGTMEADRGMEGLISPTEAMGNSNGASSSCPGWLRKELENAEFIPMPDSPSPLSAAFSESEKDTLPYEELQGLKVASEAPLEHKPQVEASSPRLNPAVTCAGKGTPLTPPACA

T3: endogenous Nercc1 kinase of human cells (p120) (human, UniProt Q8TD19 2-979)
T3 construct: Endogenous 120 kDa protein
T3 sequence: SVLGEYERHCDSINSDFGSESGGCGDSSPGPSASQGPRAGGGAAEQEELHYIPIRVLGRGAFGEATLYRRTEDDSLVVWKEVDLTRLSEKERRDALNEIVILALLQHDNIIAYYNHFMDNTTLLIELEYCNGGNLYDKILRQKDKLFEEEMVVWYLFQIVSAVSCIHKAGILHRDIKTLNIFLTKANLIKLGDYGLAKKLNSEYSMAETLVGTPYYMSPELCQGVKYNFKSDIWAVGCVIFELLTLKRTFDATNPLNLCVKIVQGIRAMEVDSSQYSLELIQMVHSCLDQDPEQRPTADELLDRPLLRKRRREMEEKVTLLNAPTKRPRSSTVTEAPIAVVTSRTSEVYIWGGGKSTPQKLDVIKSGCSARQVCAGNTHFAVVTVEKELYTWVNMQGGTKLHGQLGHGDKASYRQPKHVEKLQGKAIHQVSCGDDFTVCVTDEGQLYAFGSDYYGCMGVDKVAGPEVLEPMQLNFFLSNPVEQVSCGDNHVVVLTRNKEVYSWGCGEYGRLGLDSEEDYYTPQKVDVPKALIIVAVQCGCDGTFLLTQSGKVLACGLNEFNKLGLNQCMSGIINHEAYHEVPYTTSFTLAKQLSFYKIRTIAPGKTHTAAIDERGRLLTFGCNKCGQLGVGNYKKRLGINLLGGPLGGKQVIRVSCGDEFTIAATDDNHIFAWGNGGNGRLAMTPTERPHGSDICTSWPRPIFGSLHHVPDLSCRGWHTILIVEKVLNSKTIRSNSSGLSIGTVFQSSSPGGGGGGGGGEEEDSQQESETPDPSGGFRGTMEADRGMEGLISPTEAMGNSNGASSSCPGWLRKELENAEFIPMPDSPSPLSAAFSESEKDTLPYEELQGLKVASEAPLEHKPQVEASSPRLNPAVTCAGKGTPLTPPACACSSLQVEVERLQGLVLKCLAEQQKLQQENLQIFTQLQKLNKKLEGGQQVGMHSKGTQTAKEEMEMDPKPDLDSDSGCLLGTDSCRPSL

B1: Nek6 (tag of the construct not stated) (enzyme)
chain: not shown
B2: FLAG Nek6 (enzyme)
chain: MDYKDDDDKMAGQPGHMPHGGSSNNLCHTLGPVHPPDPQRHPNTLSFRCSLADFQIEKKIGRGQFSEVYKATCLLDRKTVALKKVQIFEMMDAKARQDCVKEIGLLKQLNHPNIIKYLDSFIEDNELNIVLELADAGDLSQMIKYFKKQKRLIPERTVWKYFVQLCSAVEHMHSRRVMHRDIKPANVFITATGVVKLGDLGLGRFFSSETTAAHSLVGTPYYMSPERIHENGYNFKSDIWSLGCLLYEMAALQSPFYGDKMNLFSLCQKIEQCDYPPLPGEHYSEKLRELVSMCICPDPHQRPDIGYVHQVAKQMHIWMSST
notes: Expressed in HEK293 cells; runs as a doublet (phosphorylated and unphosphorylated); also called wild type FLAG Nek6

Key:
HA wild type Ran = HA wild type Ran (UniProt P62826 1-216); test: co-expression and co-immunoprecipitation
From the text: To address more directly the relative binding in vivo of Nercc to Ran-GDP compared to Ran-GTP, the cytoplasmic wild type Nercc and a nuclear form of full length Nercc (NLS-Nercc) were each co-expressed with wild type Ran or Ran mutants that bind GDP (T24N) or GTP (G19V) exclusively; either Ran or Nercc was immunoprecipitated and probed for the association with the other polypeptide. The full-length wild type Nercc bound co-expressed wild type Ran and Ran T24N to a greater extent than RanG19V.

[1] = target: T1, FLAG Nercc (full-length wild type …); test: binding test of co-expressed proteins; details not given
FLAG Nercc (1-891) = target: T2, FLAG Nercc (1-891); test: as above
[2] = target: T3, endogenous Nercc1 kinase of human cells …; test: anti-FLAG immunoaffinity purification from HEK293 cells; associated band identified by mass spectrometry
From the text: Immunoaffinity purification of a FLAG Nek6 polypeptide overexpressed in HEK293 cells results in the recovery of an associated 120 kilodalton (kDa) polypeptide (p120). […] The 120 kDa band was excised, subjected to tryptic digestion in situ, microcapillary reverse-phase HPLC and peptide sequence analysis by electrospray ionization mass spectrometry. Spectra corresponding to multiple peptide sequences were identified on each of three successive open reading frames (ORFs) predicted by […] (Burge et al., J. Mol. Biol., 268: 78-94 (1997)) on the human BAC clone 201F1 (AC007055). […] Further analysis of the genomic sequences including and surrounding all three ORFs, using both […] (Borodovsky et al., Computers and Chem., 17: 123-133 (1993)) or […] yielded predictions containing all three original ORFs (AAD31938, AAD31939 and AAD31940) in polypeptides of around 100 kDa (107 kDa and 91 kDa, respectively).

Binder | binding result (HA wild type Ran) | binding result [1] | binding result (FLAG Nercc (1-891)) | binding result [2]
B1 | no binding | binds | binds | –
B2 | – | – | – | binds
